Series [1] addresses 4-aminobutyrate aminotransferase, mitochondrial (Sus scrofa) (UniProt P80147).
Description: (§1) Compound was tested for the inhibition of Gamma-amino-N-butyrate transaminase (GABA-AT)
In series [2] the test system is N[C@@H]1C=C[C@@H](C(=O)O)C1.
For series [3], the system named is N[C@H]1C=C[C@@H](C(=O)O)C1.
Series [4] relates to N[C@@H]1C=C[C@H](C(=O)O)C1.
Description: as §1

4-aminobutyrate aminotransferase, mitochondrial (Sus scrofa), P80147, sequence (P80147 whole entry): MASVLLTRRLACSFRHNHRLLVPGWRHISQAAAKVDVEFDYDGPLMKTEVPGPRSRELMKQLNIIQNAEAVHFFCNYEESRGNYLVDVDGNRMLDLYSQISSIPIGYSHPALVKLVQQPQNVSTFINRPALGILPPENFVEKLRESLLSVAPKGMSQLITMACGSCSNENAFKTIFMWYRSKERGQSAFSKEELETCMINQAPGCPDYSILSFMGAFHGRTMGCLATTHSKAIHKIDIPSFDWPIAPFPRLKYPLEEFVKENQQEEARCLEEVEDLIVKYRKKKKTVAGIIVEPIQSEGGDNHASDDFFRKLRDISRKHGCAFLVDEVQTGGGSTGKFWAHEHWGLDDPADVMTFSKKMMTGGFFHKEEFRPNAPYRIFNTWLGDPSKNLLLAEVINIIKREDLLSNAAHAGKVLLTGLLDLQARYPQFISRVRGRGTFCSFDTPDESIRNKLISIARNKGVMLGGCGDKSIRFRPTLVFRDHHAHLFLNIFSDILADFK
4-aminobutyrate aminotransferase, mitochondrial (Sus scrofa), sequence (P80147 whole entry): as above
Description for NC1C=CC(C(=O)O)C1: as §1
Description for N[C@@H]1CC=C(C(=O)O)C1: as §1

In series [1], `NC1C=CC(C(=O)O)C1` (racemic) yielded a k cat of 0.667 s⁻¹.
In the case of “4-aminobutyrate aminotransferase, mitochondrial (Sus scrofa), P80147”, the Michaelis constant (Km) entry is “No turn over” in series [2]; “No turn over” in series [3]; “No turn over” with N[C@H]1CC=C(C(=O)O)C1; 2300 µM in the series on NC1C=CC(C(=O)O)C1; 1600 µM in the series with N[C@@H]1CC=C(C(=O)O)C1; 100 µM in series [4].
In series [1], `N[C@@H]1C=C[C@H](C(=O)O)C1` yielded a k cat of 0.195 s⁻¹.
Still for that read-out and setting: for `N[C@@H]1CC=C(C(=O)O)C1` the value was 0.625 s⁻¹.
